Experiment: yeast display, Sf9 membrane polyspecificity reagent, FACS + sequencing; frameworks hold sequencing errors
In short: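 In a synthetic yeast display library (Saccharomyces cerevisiae BJ5465), nanobody expression was induced with galactose for 36–48 hours. FACS gates were set low and high (top ~1%) using anti-HA fluorescence for expression and streptavidin fluorescence for binding of the Sf9 membrane reagent. Each polyreactivity label is drawn from the gate of origin.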

Sequence	polyreactivity (PSR sort gate)
QVQLVESGGGLVQAGGSLRLSCAASGSIFSPNVMGWYRQAPGKERELVAAINGSGSRTYYADSVKGRFTISRDNAKNTVYLQMNSLKPEDTAVYYCAAGSLGRYYFKLDYWGQGTQVTVSS	high polyreactivity
QVQLVESGGGLVQAGGSLRLSCAASGSIFSPYAMGWYRQAPGKERELDASISSGTSTNYADSVKGRFTISRDNAKNTVYLQMNSLKPEDTAVYYCNAGADSTVRNYVTSFSQYDYWGQGTQVTVSS	low polyreactivity
QVQLVESGGGLVQAGGSLRLSCAASGSIFSRNAKGWYRQAPGKERELVAAITSGGSTNYADSVKGRFTISRDNAKNTVYLQMNSLKPEDTAVYYCARGWISGFTSRYSIRVLFDYWGQGTQVTVSS	high polyreactivity
QVQLVESGGGLVQAGGSLRLSCAASGSIFSRYALGWYRQAPGKERELVAAISTIGGSTYYADSVKGRFTISRDNSKNTVYLQMNSLKPEDTAVYYCNARQSAALSPRYGYWGQGTQVTVSS	high polyreactivity
QVQLVESGGGLVQAGGSLRLSCAASGSIFSRYAMGWYRPAPGKERELVAAISRSTGSTYYADSVKGRFTISRDNAKNTVYLQMNSLKPEDTAVYYCAAKWIRWGYVSSNSRFGYWGQGTQVTVSS	high polyreactivity
QVQLVESGGGLVQAGGSLRLSCAASGSIFSRYAMGWYRQAPGKERELVAAINGRGSRTYYADSVKGRFTISRDNEMNTVYLQMNSLKPEDTAVYYCAAGRSRLYGPRYFIYKYNYWGQGTQVTVSS	high polyreactivity
QVQLVESGGGLVQAGGSLRLSCAASGSIFSRYAMGWYRQAPGKERELVAAISGRGGGTYYADSVKGRFTISRDNAKNTVYLQKNSMKPEDTAVYYCAAQLGRPAYSRVSWRAYYYWGQGTQVTVSS	low polyreactivity
QVQLVESGGGLVQAGGSLRLSCAASGSIFSRYAMGWYRQAPGKERELVAAITWRGGSTYYADSVKGRFTISRDNAKNTVYLQMNSLKPEDTAVYYCAKDRWTYAFRVGYGYWGQGTQVTVSS	high polyreactivity
QVQLVESGGGLVQAGGSLRLSCAASGSIFSRYTMGWSRQAPGKERELVASISRRGGRTYYADSVKGRFTISRDNAKNTVYLQMNSLKPEDTAVYYCNTRTPAEYTPYGYDYWGQGTQVTVSS	high polyreactivity
QVQLVESGGGLVQAGGSLRLSCAASGSIFSRYTMGWYRQEPGKERELVAAITSSGGRTYYADSVKGRFTISRDNAKNTVYLQMNSLKPEDTAVYYCAARIPKQQGYGYWGQGTQVTVSS	high polyreactivity
QVQLVESGGGLVQAGGSLRLSCAASGSIFSSNAMGWYRQAPGKERELVAAITRGGRTTYADSVKGRFTISRDNAKNTVYLQMNSLKPEDTAVYYCNAESYLTGWWVDYWGQGTQVTVSS	low polyreactivity
QVQLVESGGGLVQAGGSLRLSCAASGSIFSSNAMGWYRQAPGSTNYADSVKGRFTISRDNAKNTVYLQMNSLKPEDTAVYYCAKDYVLFQYVDFQDDDYWGQGTQVTVSS	low polyreactivity
QVQLVESGGGLVQAGGSLRLSCAASGSIFSSNAMVWYRPAPGKERELVAAIDYSGGRTYYADSVKGRFTISRDNPKNTVYLQMNSLKPEDTAVYYCAKLIPVHSRYDYWGQGTQVTVSS	low polyreactivity
QVQLVESGGGLVQAGGSLRLSCAASGSIFSSYAKGWYLQAPGKERELVAAISQSGGDTYYADSVKGRFTISRDNAKNTVYLEMNSLKPEDSAVYYCAASVWYYPMDYWGQGSQVTVSS	low polyreactivity
QVQLVESGGGLVQAGGSLRLSCAASGSIFSSYALGWYRQAPGKVRELVAAITKRADRTNYADSVKGRFTISRDNAKNTVYLQMNSLKPEDTAVYYCNAEGQNDHPSNGYISYKYDYWGQGTQVTVSS	low polyreactivity
QVQLVESGGGLVQAGGSLRLSCAASGSIFSSYAMGWYIQAPGKEMELVAGITWGGASTYYADSVKGRFTISRDNAKNTVYLQMNSLKPEDTAVYYCNRRAWVYYAPFTVIVLYGRDYWGQGTQVTVSS	low polyreactivity
QVQLVESGGGLVQAGGSLRLSCAASGSIFSSYAMGWYRQAPGKERELVAAITGRDGSTYYADSVKGRFTISRDNAKNTVYLQMNILKPEDTAVYYCAASRFYFPRTFGGYPKLASYDYWGQGTQVTVSS	low polyreactivity
QVQLVESGGGLVQAGGSLRLSCAASGSIFSSYAMGWYRQAPGKERELVAAITRRGGSTYYADSVKGRFTISRDNAKNTVYLQMNSLKPEDTAVYYCATGITARSRYGYWGQGTQVTVSS	high polyreactivity
QVQLVESGGGLVQAGGSLRLSCAASGSIFSSYVMGWYRQAPGKERELVAAITSRGGSTYCADSVKGRFTISRDNAKNTVYFQMKSLKPEDTAVYYCAKGGTTWYWSGYRSIYFRYDYWGQGTQVTVSS	high polyreactivity
QVQLVESGGGLVQAGGSLRLSCAASGSIFSTYAMGRYRQAPGKERELVAAITFGGGTTYYADSVKGRFTISRDNAKNTVYLQMNSLKPEDTAVYYCAARYYYGSWYFYYSDKYDYWGQGTKVTVSS	low polyreactivity
QVQLVESGGGLVQAGGSLRLSCAASGSIFSTYAMGWYRQAPGKERELVAAISGSGGRTYYADSVKGRFTISRDNAKNTVYLQMNSLKPEDTAVYYCAADGGSVKTPGYYYWGQGTQVTVSS	high polyreactivity
QVQLVESGGGLVQAGGSLRLSCAASGSIFSTYAMGWYRQAPGKERELVASISRRGGSTYYADSVKGRFTISRDNAKNTVYLQMNSLKPEDTAVYYCNASGGPYRFYYWGQGTQVTVSS	low polyreactivity

Sequence	polyreactivity (PSR sort gate)
QVQLVESGGGLVQAGGSLRLSCAASGSIFSTYAMGWYRQAPGKERELVATIRRGGSTYYADSVKGRFTISRDNAKNTVYLQMNSLKPEETAVYYCAGTVSSYPYYRYYTWGQGTQVTVSS	high polyreactivity
QVQLVESGGGLVQAGGSLRLSCAASGSIFSVNAMGWYRQAPGKEREFVAGISTSGGSTYYADSVKGRFTISRDNAKNTVYLQMNSLKPEDTAVYYCAKGNFLYWQVRYYRPYKSRFYYWGQGTQVTVSS	low polyreactivity
QVQLVESGGGLVQAGGSLRLSCAASGSIFSVNTMGWNRKAPGKERELVATIRTGDSTNYADSVKGRFTISRDNAKNSVYLQMNSLKPEDTAVYYCAAEWSSMNFDYWGQGTQVNVSS	low polyreactivity
QVQLVESGGGLVQAGGSLRLSCAASGSIFSVYAMGWYRQAPGKEREFVASISGGSGRTYYADSVKGRFTISRDNAKNTVYLQMNSLKPEDTAVYYCDAVLRYTSLSHDYHYKYDYWGQGTQVTVSS	low polyreactivity
QVQLVESGGGLVQAGGSLRLSCAASGSIFSVYAMGWYRQAPGKERELVAGITRGGSTYADSVKGRFTISRDNAKNTVYLQMNSLKPEDTAVSYCAADALIATPSWGKYNYWGQGTQVTVSS	high polyreactivity
QVQLVESGGGLVQAGGSLRLSCAASGSIFSVYVMGWYRPAPGKERELVATISSGGGTYYADSVKGRFTISRDNAKNTVYLQMNSLKPEDTAVYYCYADWDDWKGDYWGQGTQVTVSS	low polyreactivity
QVQLVESGGGLVQAGGSLRLSCAASGSIFSWYAMAWYRQAPGKETELVADITWTVGSTYYADSVKGRFTISRDNAKNPVYLQMNSLIPEDTAVYYWAARRVVYRYYWYSAYDYSGQGTQVTVSS	high polyreactivity
QVQLVESGGGLVQAGGSLRLSCAASGSIFSWYAMGWYRQAPGKEREFVAAITWGTGGTYYADSVKGRFTISRDNAKNTVYLQMNSLKLEDTAVYYCAKTRSYGRSGVSRRYGFYYWGQGTQVTVSS	high polyreactivity
QVQLVESGGGLVQAGGSLRLSCAASGSIFSYNVMGWYRQAPGKERELVAAISYGGGSTYYADSVKGRFTISRDTAKNTVYLQMNSLKPEDTAVYYCAARKWYTYYPYDYWGQGTQVTVSS	high polyreactivity
QVQLVESGGGLVQAGGSLRLSCAASGSIFSYYAMGWYRQAPGKERELVAAIDRSGVSTYYADSVKGRFTISRDNAKNTVYLQMNSLKPEDTAVYYCNTDHRNICFRFKYDYWGQGTQVTVSS	high polyreactivity
QVQLVESGGGLVQAGGSLRLSCAASGSIFSYYAMGWYRQAPGKERELVAAIRRGGSTNYADSVKGRFTNSRDNAKNTVYLQMNSLKPEDTAVYYCAASLGWRFYYWGQGSQVTVSS	high polyreactivity
QVQLVESGGGLVQAGGSLRLSCAASGSIFSYYAMGWYRQAPGKERELVAAISSRGDGRTYYADSVKGRFTISRDNAKNTVYLQMNSLKPEDTAVYYCAAESSHYRLRDRDYWGQGTQVTVSS	high polyreactivity
QVQLVESGGGLVQAGGSLRLSCAASGSIFSYYAMGWYRQAPGKERELVAAISYTGGTTYYADSVKGRFTISRDNAKNTVYLQMNSLKPEDTAVYYCAAQWWWNRPVRYEYWGQGTQVTVSS	low polyreactivity
QVQLVESGGGLVQAGGSLRLSCAASGSIFSYYAMGWYRQAPGKERELVAAITSGGSTYYADSVKGRFTISRDNAKNTVYLQMNSLKPEDTAVYYCAREKWPSQYDYWGQGTQVTVSS	low polyreactivity
QVQLVESGGGLVQAGGSLRLSCAASGSIFSYYAMGWYRQAPGKERELVAAITSGGSTYYSDSVKGRFTISRDNAKNTVYLQMNSLKPEDTAVYYCAREKWPSQYDYWGQGTQVTVSS	low polyreactivity
QVQLVESGGGLVQAGGSLRLSCAASGSIFSYYAMGWYRQAPGKERELVAAITTSGGSTYYADSVKGRFTISRDNAKNTVYLQMNSLKPEDTAVYYCAVDQYDRTTAFWYWYPYYYWGQGTQVTVSS	low polyreactivity
QVQLVESGGGLVQAGGSLRLSCAASGSIFSYYAMGWYRQAPGKERELVAAITWSGGTTYYADSVKGRFTISRDNAKNTVYLQMNSLKPEDTAVYYCAADTYDYWYGVWLEYDYWGQGTQVTVSS	high polyreactivity
QVQLVESGGGLVQAGGSLRLSCAASGSIFSYYAMGWYRQAPGKERELVADITANDGSTYYADSVKGRFTISRDNAKNTVYLQMNSLKPEDTAVYYCAAEYYYPIWGPYDYWGQGTQVTVSS	high polyreactivity
QVQLVESGGGLVQAGGSLRLSCAASGSIFSYYAMGWYRQAPGKERELVATISVSGGNTYYADSVKGRFTISRDYAKNTVYLQMNSLKPEDTAVYYCAKYNWYRAWRYGYWGQGTQVTVSS	high polyreactivity
QVQLVESGGGLVQAGGSLRLSCAASGSIFSYYARGWYRHAPGKERELVADITWDGGSTYYADSVKGRFTISRDNAKNTVYLQMNSLKPEDTAVYYCAAGRIVWSDYYVYTLYDYWGQGTQVTVSS	high polyreactivity
QVQLVESGGGLVQAGGSLRLSCAASGSIFSYYVMGWYRQAPGKERELVAAITSSGGSTYYADSVKGRFTISRDNAKNTVYLQMNSLKTEDTAVYYCAAYQRSQDRSYPGYEYWGQGTQVTVSS	high polyreactivity

— the nanobody polyreactivity screen of Harvey et al. (2022)
